Each block holds one substance with its values, some of them ahead of it.
Tests used:
[1] = biological target: T1, GST-KIAA0300 PDZ domain 1 (UniProt O15018); test: G' assay; also: key of the grades not given here
T1 sequence (looked up): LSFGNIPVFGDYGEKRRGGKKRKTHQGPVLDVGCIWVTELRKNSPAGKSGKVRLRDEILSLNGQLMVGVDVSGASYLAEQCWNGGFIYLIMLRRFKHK

[2] = biological target: T2, GST-KIAA0300 PDZ domain 2 (UniProt O15018); test: G' assay; also: key of the grades not given here
T2 sequence (looked up): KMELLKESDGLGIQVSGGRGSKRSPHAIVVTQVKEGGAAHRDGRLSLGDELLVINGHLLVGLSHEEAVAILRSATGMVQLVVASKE

[3] = biological target: GST-DLG-1 PDZ domains 1 to 3 (Example 6) (Homo sapiens) (UniProt Q12959); test: G assay competition vs 10 uM biotin-CD95 20-mer; competitor 100 uM
[4] = biological target: GST-DLG-1 PDZ domains 1 to 3 (Example 6) (Homo sapiens) (UniProt Q12959); test: G assay competition vs 20 uM biotin-CLASP-2 20-mer; competitor 100 uM
[5] = biological target: GST-DLG-1 PDZ domains 1 to 3 (Example 6) (Homo sapiens) (UniProt Q12959); test: G assay competition vs 10 uM biotin-KV1.3 20-mer; competitor 100 uM
[6] = biological target: GST-DLG-1 PDZ domains 1 to 3 (Example 6) (Homo sapiens) (UniProt Q12959); test: G assay competition vs 20 uM biotin-CD46 20-mer; competitor 100 uM
[7] = biological target: GST-p55T PDZ domain 1 (Homo sapiens (Human)) (UniProt Q9NZW5); test: G' assay; also: key of the grades not given here
[8] = biological target: GST-DLG-1 PDZ domains 1 to 3 (Example 6) (Homo sapiens) (UniProt Q12959); test: G assay competition vs 20 uM biotin-CD46 20-mer; competitor 50 uM
[9] = biological target: GST-DLG-1 PDZ domains 1 to 3 (Example 6) (Homo sapiens) (UniProt Q12959); test: G assay competition vs 10 uM biotin-KV1.3 20-mer; competitor 50 uM
[10] = biological target: GST-DLG-1 PDZ domains 1 to 3 (Example 6) (Homo sapiens) (UniProt Q12959); test: G assay competition vs 10 uM biotin-CD95 20-mer; competitor 50 uM
[11] = biological target: GST-DLG-1 PDZ domains 1 to 3 (Example 6) (Homo sapiens) (UniProt Q12959); test: G assay competition vs 20 uM biotin-CLASP-2 20-mer; competitor 50 uM
[12] = biological target: GST-TIP1 PDZ domain 1 (Table 9 insert) (Homo sapiens (Human)) (UniProt O14907); test: G' assay; also: key of the grades not given here
[13] = biological target: GST-BAI-1 Associated Protein PDZ domain 2 (Mus musculus (Mouse)) (UniProt Q6RHR9); test: G' assay; also: key of the grades not given here
[14] = biological target: GST-PSD95 PDZ domains 1, 2, 3 (Homo sapiens) (UniProt P78352); test: G assay competition vs 10 uM biotin-CD95 20-mer; competitor 1000 uM
[15] = biological target: GST-DLG-1 PDZ domains 1 to 3 (Example 6) (Homo sapiens) (UniProt Q12959); test: as above
[16] = biological target: GST-PSD95 PDZ domains 1, 2, 3 (Homo sapiens) (UniProt P78352); test: G assay competition vs 10 uM biotin-KV1.3 20-mer; competitor 500 uM
[17] = biological target: GST-PSD95 PDZ domains 1, 2, 3 (Homo sapiens) (UniProt P78352); test: G assay competition vs 10 uM biotin-CD95 20-mer; competitor 500 uM
[18] = biological target: GST-DLG-1 PDZ domains 1 to 3 (Example 6) (Homo sapiens) (UniProt Q12959); test: as above
[19] = biological target: GST-PSD95 PDZ domains 1, 2, 3 (Homo sapiens) (UniProt P78352); test: G assay competition vs 20 uM biotin-CLASP-2 20-mer; competitor 500 uM
[20] = biological target: GST-DLG-1 PDZ domains 1 to 3 (Example 6) (Homo sapiens) (UniProt Q12959); test: as above
[21] = biological target: GST-PSD95 PDZ domains 1, 2, 3 (Homo sapiens) (UniProt P78352); test: G assay competition vs 20 uM biotin-CD46 20-mer; competitor 1000 uM
[22] = biological target: GST-DLG-1 PDZ domains 1 to 3 (Example 6) (Homo sapiens) (UniProt Q12959); test: as above
[23] = biological target: GST-PSD95 PDZ domains 1, 2, 3 (Homo sapiens) (UniProt P78352); test: G assay competition vs 10 uM biotin-KV1.3 20-mer; competitor 1000 uM
[24] = biological target: GST-PSD95 PDZ domains 1, 2, 3 (Homo sapiens) (UniProt P78352); test: G assay competition vs 20 uM biotin-CD46 20-mer; competitor 500 uM
[25] = biological target: GST-DLG-1 PDZ domains 1 to 3 (Example 6) (Homo sapiens) (UniProt Q12959); test: as above
[26] = biological target: GST-PSD95 PDZ domains 1, 2, 3 (Homo sapiens) (UniProt P78352); test: G assay competition vs 20 uM biotin-CLASP-2 20-mer; competitor 1000 uM
[27] = biological target: GST-DLG-1 PDZ domains 1 to 3 (Example 6) (Homo sapiens) (UniProt Q12959); test: as above

Chain of GST-PSD95 PDZ domains 1, 2, 3 (Homo sapiens) (P78352 62-395): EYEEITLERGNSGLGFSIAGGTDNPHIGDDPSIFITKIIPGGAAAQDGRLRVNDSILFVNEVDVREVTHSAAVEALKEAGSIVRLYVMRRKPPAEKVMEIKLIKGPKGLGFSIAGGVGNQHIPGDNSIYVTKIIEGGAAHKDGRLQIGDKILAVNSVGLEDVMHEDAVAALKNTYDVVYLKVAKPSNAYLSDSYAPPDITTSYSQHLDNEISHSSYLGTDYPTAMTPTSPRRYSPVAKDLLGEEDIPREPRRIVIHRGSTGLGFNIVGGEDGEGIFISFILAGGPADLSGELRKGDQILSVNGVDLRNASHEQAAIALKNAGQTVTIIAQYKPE
Chain of GST-TIP1 PDZ domain 1 (Table 9 insert) (Homo sapiens (Human)) (O14907 14-116): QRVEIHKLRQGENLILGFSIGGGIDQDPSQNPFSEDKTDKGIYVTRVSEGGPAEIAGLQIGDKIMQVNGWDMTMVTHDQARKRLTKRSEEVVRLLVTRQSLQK
Chain of GST-BAI-1 Associated Protein PDZ domain 2 (Mus musculus (Mouse)) (Q6RHR9 455-558): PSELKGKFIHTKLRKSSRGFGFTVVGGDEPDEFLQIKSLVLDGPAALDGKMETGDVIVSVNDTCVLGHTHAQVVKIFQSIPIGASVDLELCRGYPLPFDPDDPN

Classification [1]: 4 A450 class
Substance: MINT-1 (peptide)

% binding of labelled 20-mer [3]: 68%
% binding of labelled 20-mer [4]: 90%
% binding of labelled 20-mer [5]: 63%
% binding of labelled 20-mer [6]: 90%
Substance: CD46 8-mer (peptide)

Classification [7]: 1 A450 class
Substance: presenilin-1 (peptide)

% binding of labelled 20-mer [8]: 110%
% binding of labelled 20-mer [9]: 84%
% binding of labelled 20-mer [10]: 70%
% binding of labelled 20-mer [11]: 73%
Substance: unlabeled 8 amino acid peptide corresponding to the C-terminus of CD95

% binding of labelled 20-mer [14]: 55%
% binding of labelled 20-mer [15]: 46%
% binding of labelled 20-mer [16]: 81%
% binding of labelled 20-mer [17]: 55%
% binding of labelled 20-mer [18]: 51%
% binding of labelled 20-mer [19]: 82%
% binding of labelled 20-mer [20]: 61%
% binding of labelled 20-mer [21]: 59%
% binding of labelled 20-mer [22]: 45%
% binding of labelled 20-mer [23]: 50%
% binding of labelled 20-mer [24]: 75%
% binding of labelled 20-mer [25]: 72%
% binding of labelled 20-mer [26]: 63%
% binding of labelled 20-mer [27]: 59%
Substance: CLASP-2 3-mer (peptide)

Second part, the substance before the results:

Substance: presenilin-2 (peptide)
Classification [1]: 1 A450 class
Classification [2]: 1 A450 class

Substance: ephrin B2 (peptide)
Classification [1]: 2 A450 class

Substance: AdenoE4 typ9 (peptide)
Classification [1]: 1 A450 class

Substance: MINT-2 (peptide)
Classification [7]: 1 A450 class
Classification [1]: 3 A450 class

Substance: HPV E6 #18 (peptide)
Classification [12]: 4 A450 class
Classification [13]: 5 A450 class

Substance: CSPG4 (chondroitin sulfae proteoglycan 4, melanoma-associated) (peptide)
Classification [1]: 2 A450 class

Reference: patent US20050282743A1, “Molecular interactions in cells” (Arbor Vita Corporation, priority 2001, published 2005)
